± gives the standard deviation of the averaged measurements.
tested on: ATP; experiment: switch fluorescence ratio, 500 uM ATP over buffer (Cy3 cluster intensity, sum of 5 cycles each) (fold (ratio)); higher = stronger signal-on switching upon ATP binding; sequences stand for … in TCGTCGGCAGCGTCAGATGTGTATAAGAGACAGTTTTTTTTTTTTTTTTTTTTTTTTT…TC; settings: aptamer strand: ATP DNA aptamer (quencher-CACCTGGGGGAGTATTGCGGAGGAAGG + anchor), 100 nM annealed; ATP concentration: 500 uM
Summary of the method: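 Imaging in selection buffer was followed by imaging after 15 min with 500 uM ATP at 22 °C, for Cy3-labelled switching-strand clusters annealed to 100 nM quencher-labelled ATP aptamer on a modified Illumina MiSeq flow-cell. Five of these buffer/ATP cycles ran, separated by NaOH stripping and re-annealing. The fluorescence ratio per cluster is summed target-cycle over summed buffer-cycle Cy3 intensity, averaged per switch-domain sequence; clusters outside 100-1000 RFU were removed.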
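Note: ATP exposure 15 min at 22 °C before imaging.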

| Sequence | switch fluorescence ratio |
| --- | --- |
| CTTAAAACGT | 1.056 ± 0.0033 |
| TTGTTCGGGA | 1.016 ± 0.0094 |
| TGTTGATCCT | 1.03 ± 0.027 |
| GCAAAAATGC | 1.03 ± 0.031 |
| GTGACTTTGT | 1 ± 0.023 |
| TATGTTTAAT | 0.994 ± 0.041 |
| TTCGCAGGGA | 1.074 ± 0.0042 |
| TGAGTTATGG | 0.968 ± 0.03 |
| AACTTCTATT | 1.016 ± 0.00089 |
| AGTTTGTCTG | 0.9665 ± 0.007 |
| CAGCGTATCA | 1.01 ± 0.0018 |
| TTGTGCCTAT | 1.005 ± 0.0071 |
| TGTTGGGGG | 0.994 ± 0.062 |
| GTGGCTGCGT | 0.9776 ± 0.0063 |
| AAGCTTTTGT | 0.9849 ± 0.0084 |
| AGTCTCAAGT | 1.01 ± 0.045 |
| GACATATGGG | 0.967 ± 0.035 |
| GAAGTGGGGG | 1.01 ± 0.042 |
| GGATTTCGTG | 0.986 ± 0.024 |
| GCGGTCACGG | 0.9974 ± 0.0092 |
| TTTTATCTAA | 0.988 ± 0.048 |
| TTGGCGTATT | 1.01 ± 0.071 |
| AAGTTCGTGC | 1.02 ± 0.058 |

| Sequence | switch fluorescence ratio |
| --- | --- |
| AGCTGATCTA | 0.986 ± 0.022 |
| GGCCTATAAC | 1 ± 0.021 |
| TAATTTTTGC | 1.02 ± 0.043 |
| CGGGACGCGA | 1.28 ± 0.043 |
| TATAATACGG | 1.02 ± 0.02 |
| AGATTTTTTT | 0.996 ± 0.031 |
| CGCATTAAAA | 0.969 ± 0.024 |
| CCGAGGAATG | 1.106 ± 0.0083 |
| TCTGTCAAGG | 1 ± 0.034 |
| TGGCCGCTTT | 1.03 ± 0.03 |
| CGCTCAAAGG | 1.03 ± 0.015 |
| TGGCTCGAGC | 1.01 ± 0.017 |
| GAGATATATG | 0.983 ± 0.052 |
| TATCGGGGTA | 1.002 ± 0.0047 |
| TTTGGAGTGG | 0.998 ± 0.033 |
| CACAACTTAA | 0.9867 ± 0.0023 |
| CGTAGTACGC | 1.12 ± 0.04 |
| TTCATGGGGA | 0.985 ± 0.023 |
| GGTCATGAGG | 0.989 ± 0.023 |
| TGGGGGCAAA | 0.987 ± 0.03 |
| GGCGGGAATT | 0.972 ± 0.031 |
| CTAGTAAAGT | 0.977 ± 0.037 |
| AATCATTGTT | 1.02 ± 0.026 |

| Sequence | switch fluorescence ratio |
| --- | --- |
| GCTGATGCGG | 0.999 ± 0.012 |
| AGTGCGGTGG | 1 ± 0.059 |
| TACTTTTGCA | 0.985 ± 0.025 |
| TAAAGGTAAT | 1.01 ± 0.024 |
| CCCGGATTTG | 1.01 ± 0.055 |
| TTTTGCAGCC | 0.976 ± 0.02 |
| GTCATAGGGG | 1.01 ± 0.026 |
| ATGTTGTTGG | 0.9676 ± 0.007 |
| TGGCAGAAGG | 1.06 ± 0.076 |
| AAGGGGTCTA | 1.002 ± 0.0085 |
| ATAGCAGGCG | 1.01 ± 0.027 |
| CGGAATGCAG | 1.076 ± 0.0032 |
| GGGGATTGAA | 0.994 ± 0.018 |
| TACAGGTCGG | 1 ± 0.033 |
| GGGGCGCGAC | 0.993 ± 0.085 |
| AGTAAAATGG | 1.01 ± 0.038 |
| ACTGGATCAC | 1.099 ± 0.0035 |
| ACGTGTGGGC | 1.02 ± 0.017 |
| TGATTCTCTT | 1 ± 0.027 |
| GGAGGGGGTT | 1.01 ± 0.051 |
| ATTAAATTTT | 1.01 ± 0.032 |
| AGCAGGCCGG | 0.976 ± 0.025 |
| GGGGGGCCTG | 0.982 ± 0.038 |

| Sequence | switch fluorescence ratio |
| --- | --- |
| TCCGGGTAGG | 1.036 ± 0.0049 |
| ATTTGTATTT | 0.992 ± 0.026 |
| AATATTATGG | 1 ± 0.016 |
| GTGGGATTT | 0.995 ± 0.022 |
| TTCCGATTCG | 1.09 ± 0.035 |
| TTGGGTGTGG | 1.01 ± 0.037 |
| CACTTGGAAG | 1 ± 0.028 |
| CTTGTGGTGT | 0.973 ± 0.019 |
| GTTGTTTTAA | 1.05 ± 0.011 |
| CATGATTCA | 0.998 ± 0.041 |
| GTTTTAGTAG | 1.02 ± 0.015 |
| AGGGGTTTGG | 0.983 ± 0.024 |
| AAAAATGGCT | 1.04 ± 0.091 |
| TTTGTGTTAG | 0.9983 ± 0.0082 |
| TTTGTGAAAG | 1.008 ± 0.006 |
| CGGGTAAATA | 1.011 ± 0.0084 |
| TCCATACTGG | 1.004 ± 0.0073 |
| CTACTTTTTT | 1.01 ± 0.023 |
| AGCGTCAACG | 0.954 ± 0.015 |
| AGTTTCTACG | 0.994 ± 0.015 |
| TGGGTGGGGA | 1 ± 0.036 |
| TGGTTATAAT | 0.992 ± 0.024 |
| ATATTAAAGT | 1.038 ± 0.0047 |

| Sequence | switch fluorescence ratio |
| --- | --- |
| ATTGGGAAGG | 0.965 ± 0.039 |
| TTTGTGTGTT | 1.02 ± 0.024 |
| TTATAAATAT | 1.08 ± 0.044 |
| ACGTTGGGTC | 1.02 ± 0.06 |
| TTTTCCAAAT | 1.02 ± 0.024 |
| ATGTCTTGTG | 0.985 ± 0.026 |
| GTCGGGAAGT | 0.958 ± 0.024 |
| TGAACTCTAG | 1.02 ± 0.059 |
| GGGGAATAAG | 1.01 ± 0.053 |
| GTTACCCGA | 0.98 ± 0.016 |
| GCATAAAGGG | 0.989 ± 0.019 |
| CGGGTTTTGG | 1.01 ± 0.034 |
| TAATTTAAAG | 1 ± 0.041 |
| CAATTTTTTT | 1.08 ± 0.12 |
| TTTTTGGTGT | 1.03 ± 0.036 |
| AAAGGATCGT | 1.01 ± 0.02 |
| CGGGATGGCC | 1 ± 0.018 |
| GGGCCTTGAG | 1.031 ± 0.008 |
| GGTCCTTAGG | 1 ± 0.021 |
| TGGGTAAAGC | 1.03 ± 0.017 |
| GTTGTAGAGT | 1.03 ± 0.032 |
| TGAAAATGGT | 0.996 ± 0.015 |
| CCGGAGGGAG | 1.0201 ± 0.0006 |

| Sequence | switch fluorescence ratio |
| --- | --- |
| ATTGGCACGG | 0.986 ± 0.034 |
| GGTTCTGGCC | 0.996 ± 0.013 |
| TTTTTTGTAC | 1.06 ± 0.037 |
| AGATTGAGAA | 0.998 ± 0.028 |
| AGGCGTTCTG | 0.991 ± 0.051 |
| TTGGGCTTTT | 0.996 ± 0.017 |
| GGGCGGGCTG | 1.006 ± 0.0084 |
| CATGGGGTAA | 0.99 ± 0.014 |
| AGATAGAAGG | 0.995 ± 0.012 |
| TGAATGTAGC | 0.9781 ± 0.0024 |
| ACGGCATTTG | 1.05 ± 0.024 |
| GGGTTTAATG | 0.96 ± 0.016 |
| AAATCGGATA | 1.03 ± 0.003 |
| TAATTTGATG | 0.979 ± 0.027 |
| TTTTTGTACG | 0.998 ± 0.025 |
| AATATTAGCC | 0.957 ± 0.02 |
| AATTAAGATA | 0.991 ± 0.03 |
| AATGACGAGC | 1.04 ± 0.017 |
| TTACCCCGTG | 1.13 ± 0.022 |
| TTAAAGGTAT | 1.11 ± 0.063 |
| AATTATCTGT | 0.9792 ± 0.0065 |
| AAATTTAAAT | 1.02 ± 0.024 |
| GATATTTTAA | 0.992 ± 0.037 |

| Sequence | switch fluorescence ratio |
| --- | --- |
| GCTGGGTATT | 0.9435 ± 0.0054 |
| TTTTGGTCGG | 0.983 ± 0.022 |
| TTACGTGGTT | 1.07 ± 0.026 |
| TTTTTTTATG | 0.989 ± 0.037 |
| TACTGGGGCG | 0.997 ± 0.082 |
| TTATGTAAGG | 0.971 ± 0.014 |
| CCCATTATGC | 1.13 ± 0.057 |
| GATGGGGGTG | 1.02 ± 0.053 |
| TATCGTGGAG | 1.04 ± 0.042 |
| CTAGTTGGAT | 0.9908 ± 0.0053 |
| GCTTCGTTGG | 1.17 ± 0.18 |
| CCTGTGCAGG | 1.11 ± 0.02 |
| TTTGCTACGG | 1.05 ± 0.013 |
| AATGGGTGGT | 1 ± 0.017 |
| AATCGCGTTT | 1.017 ± 0.0012 |
| CACACAGTCG | 1.09 ± 0.015 |
| CGCTAAAGCC | 1.156 ± 0.003 |
| AGTGGTGTTT | 0.989 ± 0.016 |
| ACTAGGTATT | 1.03 ± 0.033 |
